Test results taken from the DeepSol protein solubility set.

Experiment: soluble on expression in E. coli; label from the status in PepcDB or PDB records

Row | Sequence | soluble on expression in E. coli
1 | MTTQVVNVIGAGLAGSEAAYQIAKRGVQVRLYEMRPVRQTPAHHTDKFAELVCSNSLRANTLTNAVGVIKEEMRLMDSVIIRAADECSVPAGGALAVDRHEFAAKVTEYVKNHPNVTVMNEEITEIPEGPTIIATGPLTSPDLSAQLKELTGEDYFYFYDAAAPIVEKDSIDMNKVYLKSRYDKGEAAYLNCPMTEEEFDRFYEALIAAETVPLKEFEKEIFFEGCMPVEVMASRGRQTLVFGPMKPVGLEDPKTGKTPYAVVQLRQDDAAGTLYNIVGFQTHLKWGPQKEVLQLIPGLENAEIVRYGVMHRNTFINSPNLLRPTYQYKQRDDLFFAGQMTGVEGYVESAASGLLAGINAARLVKGEEPVVLPPVTAMGSMANYITATNAKNFQPMNANFGLFAPLEKKIKKKAERNEAYATRALETIRNFVNILEHHHHHH | soluble
2 | MTTRTRILTGITTTGTPHLGNYAGAIRPAIVASRDSNADSFYFLADYHALIKCDDPLRIQRSRQEIAATWLAGGLDVERVTFYRQSDIPEIPELTWLLTCVAAKGLLNRAHAYKASVDKNVEAGEDPDAGITMGLYSYPVLMAADILMFNAHKVPVGRDQIQHVEMARDIGQRFNHLFGQGKEFFTMPEALIEESVATLPGLDGRKMSKSYDNTIPLFTSAKDMKDAISRIVTDSKAPGEAKDPDNSHLFTLYQAFSTPAQAAEFRSELLHGLGWGEAKNRLFQLLDAELGEARERYHQLIARPSDLEDILRAGAVKARAVATPFLNELREAVGLRSFAAQVQVAATTKKKAAKAARFISFREDDGSFRFRLLSADGEQLLLSRNFADGKAAGAVTKQLQSGQELDLRTEGNAFGIWLDGACVADSPDFADASARDAAVDALRIALTPAQDLEHHHHHH | soluble
3 | MTTYTFDQVEEAIEQLYPDFTINTIEISGEGNDCIAYEINGNFIFKFPKHSRASINLLNEVTVLKTIHNELSLPIPEVVFTGMPSEMCQMSFAGFTKIKGVPLTPLLLKNLPKQSQDQAAKDLARFLSELHSINISGFKSNLVLDFREKINEDNKKIKKLLSRELKGHQMKKVDDFYRDILDNEIYFKYYPCLIHNDFSSDHILFDTEKNTICGIIDFGDAAISDPDNDFISLMEDDEEYGMEFVSKILNHYKHKDIPTVLEKYMMKEKYWSFEKIIYGKEYGYMDWYEEGLNEIRSIKIK | soluble
4 | MTVLAQLYYKYGTMNSGKTIEILKVAHNYEEQGKPVVIMTSSLDTRDGFGVVASRIGMRREAVTITDDMDIFAYIENMFKKPYCILIDESQFLSQKNVYDLARIVDELDVPVMAFGLKNDFQNHLFEGSRELLLLADKIEEIKTICQFCSKKATMVLRTENGRPVYKGNQIQIGGNETYIPVCRRHYFHPPIKALEHHHHHH | not soluble
5 | MTVLVVRHGTAGSKAHFSGDDSKRPLDKRGRAQAEALVPQLLAFGATDVYAADRVRCHQTMEPLAAELNVTIHNEPTLTEESYANNPKRGRHRVLQIVEQVGTPVICTQGKVIPDLITWWCERDGVHPDKSRNRKGSTWVLSLSAGRLVTADHLEHHHHHH | not soluble
6 | MTWEFENPLFVNSSGTAVGPKEKEGPLGHLFDKSYDEMHCNQKNWEMAERKLMEDAVQSALSKQNLKKEDIDIFLAGDLLNQNVTANYVARHLKIPFLCLFGACSTSMESIAISSALIDGGFAKRALAATSSHNATAERQFRYPTEYGGQKPGTATSTVTGSGAVVLSQQPGGIKITSATVGRVIDLGITDSQDMGSAMAPAAADTIKQHLEDLGRTPDDYDLILTGDLSGVGSPILKDLLKEEGINVGTKHNDCGLMIYTPDQQVFAGGSGCACSAVVTFAHIFKEIEAGRLNRVLVVATGALLSPTIIQQKESIPCIAHGVVFERAERGNALEHHHHHH | not soluble
7 | MTWFIDRRLNGKNKSMVNRQRFLRRYKAQIKQSISEAINKRSVTDVDSGESVSIPTEDISEPMFHQGRGGLRHRVHPGNDHFVQNDRIERPQGGGGGSGSGQGQASQDGEGQDEFVFQISKDEYLDLLFEDLALPNLKQNQQRQLTEYKTHRAGYTANGVPANISVVRSLQNSLARRTAMTAGKRRELHALEENLAIISNSEPAQLLEEERLRKEIAELRAKIERVPFIDTFDLRYKNYEKRPDPSSQAVMFCLMDVSGSMDQSTKDMAKRFYILLYLFLSRTYKNVEVVYIRHHTQAKEVDEHEFFYSQETGGTIVSSALKLMDEVVKERYNPAQWNIYAAQASDGDNWADDSPLCHEILAKKLLPVVRYYSYIEITRRAHQTLWREYEHLQSTFDNFAMQHIRDQDDIYPVFRELFHKQNATAKGLEHHHHHH | not soluble
8 | MTYDYVIVGGGIVGVSTGWQLKRRYPEKSVLLIEKEAGFSRHQTGHNSGVIHAGVYYAPGSLKADFCKRGVERTLAFCAQHNIPVENCGKLLVATNEQELERMHALYDRCLQNQIDVEKLDAAQLKLAEPNIRGLGAILVKATSIVNYRLVTEKMAEAFMQLGGDVKIGTEVVGLEETPSSITLTCQQKNQRVSYQAKFLVTCSGLMADRLTKMLGLPTDFQIIPYRGEYYRLAPKHNQVVRHLIYPIPDPELPFLGVHLTRMIDGCVTVGPNAVQGFKREGYGKWNVSLRDVWEMVCFPGFWKVSAKHFKTGMVEMKNSWWKAGYLQLVRKYCPSIELTDLEPYPAGIRAQAVLSDGTLVHDFLFAESPRSLHVCNAPSPAATSAMPIGEYLCDKIAEKSLALEHHHHHH | soluble
9 | MTYRIKKWQKLSTITLLMAGVITLNGGEFRSVDKHQIAVADTNVQTPDYEKLRNTWLDVNYGYDKYDENNPDMKKKFDATEKEATNLLKEMKTESGRKYLWSGAETLETNSSHMTRTYRNIEKIAEAMRNPKTTLNTDENKKKVKDALEWLHKNAYGKEPDKKVKELSENFTKTTGKNTNLNWWDYEIGTPKSLTNTLILLNDQFSNEEKKKFTAPIKTFAPDSDKILSSVGKAELAKGGNLVDISKVKLLECIIEEDKDMMKKSIDSFNKVFTYVQDSATGKERNGFYKDGSYIDHQDVPYTGAYGVVLLEGISQMMPMIKETPFNDKTQNDTTLKSWIDDGFMPLIYKGEMMDLSRGRAISRENETSHSASATVMKSLLRLSDAMDDSTKAKYKKIVKSSVESDSSYKQNDYLNSYSDIDKMKSLMTDNSISKNGLTQQLKIYNDMDRVTYHNKDLDFAFGLSMTSKNVARYESINGENLKGWHTGAGMSYLYNSDVKHYHDNFWVTADMKRLSGTTTLDNEILKDTDDKKSSKTFVGGTKVDDQHASIGMDFENQDKTLTAKKSYFILNDKIVFLGTGIKSTDSSKNPVTTIENRKANGYTLYTDDKQTTNSDNQENNSVFLESTDTKKNIGYHFLNKPKITVKKESHTGKWKEINKSQKDTQKTDEYYEVTQKHSNSDNKYGYVLYPGLSKDVFKTKKDEVTVVKQEDDFHVVKDNESVWAGVNYSNSTQTFDINNTKVEVKAKGMFILKKKDDNTYECSFYNPESTNSASDIESKISMTGYSITNKNTSTSNESGVHFELTK | not soluble
10 | MVAASEGNVVIEVDMANGWRGNASGSTSHSGITYSADGVTFAALGDGVGAVFDIARPTTLEDAVIAMVVNVSAEFKASEANLQIFAQLKEDWSKGEWDCLAASSELTADTDLTLTCTIDEDDDKFNQTARDVQVGIQAKGTPAGTITIKSVTITLAQEAYSANVDHLRDLAPSDFPIGVAVSNTDSATYNLLTNSREQAVVKKHFNHLTAGNIMKMSYMQPTEGNFNFTNADAFVDWATENNMTVHGHALVWHSDYQVPNFMKNWAGSAEDFLAALDTHITTIVDHYEAKGNLVSWDVVNAAIDDNSPANFRTTDSAFYVKSGNSSVYIERAFQTARAADPAVILYYNDYNIEQNNAKTTKMVDMVKDFQARSIPIDGVGFQMHVCMNYPSIANISAAMKKVVDLGLLVKITELDVAVNQPHCDAYPANKINPLTEAAQLAQKKRYCDVVKAYLDTVPVNQRGGISVWGTTDANTWLDGLYREQFEDEKISWPLLFDNNYNDKPALRGFADALIGTQCTNTHELHHHHHH | soluble
11 | MVADLMLCTNFFIFTGGPGSGKTAVLNELNTWGYLTVSEVARSIIQKQQADGGDAIHTGNRKAFRDLMLEQSIADYCKMQSEEKIVFFDRGIPDLYGYSKAFCGEASKEVNEAVGRFRYNKTVFIFPPWPEIYENDDERQQDYQEALQTYYAVKEGYFDCGYVLLEVPKCPIKDRANFIFQMISKNGLEHHHHHH | soluble
12 | MVAGLTNGELIAPMTYEETMTSDFFEAWFQKFLLPTLTTPSVIIMDNARFHRMGKLELLCEEFGYKLLPLPPYSPEYNPIEKTWAHIKKHLKKVLPSCNTFYEALLSCSCFNLEHHHHHH | not soluble
13 | MVCVSFPLFPEREADLCQRLVHLLDELRHHFVEIGHVLRIPLNDDVVNAFAFHARVVVCKEPCVFSGHPHAVLHLGHVRRLDGFETAKAEFHEVAGGERAFKLKAEPVTAQAVRGAGGAHALVTEQDRRLRDFHVSGELEEGAGVFFVLLAPGQRLGVNLWRYTGAYLGEQGVEVGHFHVCPFAARSRLGNDVVSVRGSNNSEP | not soluble
14 | MVDQAQDTLRPNNRLSDMQATMEQTQAFENRVLERLNAGKTVRSFLITAVELLTEAVNLLVLQVFRKDDYAVKYAVEPLLDGDGPLGDLSVRLKLIYGLGVINRQEYEDAELLMALREELNHDGNEYAFTDDEILGPFGELHCVAALPPPPQFEPADSSLYAMQIQRYQQAVRSTMVLSLTELISKISLKKAFQK | soluble
15 | MVEDILAPGLRVVFCGINPGLSSAGTGFPFAHPANRFWKVIYQAGFTDRQLKPQEAQHLLDYRCGVTKLVDRPTVQANEVSKQELHAGGRKLIEKIEDYQPQALAILGKQAYEQGFSQRGAQWGKQTLTIGSTQIWVLPNPSGLSRVSLEKLVEAYRELDQALVVRGR | soluble
16 | MVEEMNNEVTEMKSFSVGDVVSGKVTKVEDKQAFVDVGFKVDGIIPISELSSLHVEKVSDVLSEGDELELKVLKVEDDELILSKRAVQAEKAWETLQAALDSGEVIEAEVADVVKGGLVVDLGVRGFIPASLVERHYVEDFSDYKGRTLRLKVVELDKEANKLILSQRAVLDEEVEAKKKEVLASLQPGDVVEGTVQRLTDFGAFVDVGGVDGLVHISQLAHHRVETPAEVVKEGDAVKVKVLSVDPDSERVSLSIKETLPGPWEQVEGTIQPGDVIEGTVKRLVSFGAFVEVAPGVEGLVHISQIANRHIGTPGEVLSEGERVQAKVLDVNISEKRISLSIRELLDDAGSNQSDREVYESTNEESSGFSLGDMIGDELKKYKLEHHHHHH | soluble
17 | MVEKEKKDEEETRKITISVKGIRDDVYRNVSELARHTGKTIGEITNDAYRTFLGTVEGVRNVSQSFIEGAKGAIPRYIDNFKKLEITADDLKDLGQKVAFRNIDELTFKNITDEEFSKYVAFIDGVKVLKIPKTVKKTTVIKISTFVDEIIQE | not soluble
18 | MVEVKPIIIDGHPFIAVSVQLPKTNLLAVAGEKGYIMCGALDVALLNEKLRDRGIIAGRAVGVRTIEQLLEAPLESVTVAALELGIEEGMKGREALLKMR | not soluble
19 | MVFDPDFLNNNSEEHTNQLLNEHFGEHPNQLLKYLQHQSPEVLARVAQSVTPEIKQIISQNVQGLVGMLPAESFNVQITTDRDNLAGLLASAMMTGYFLRQMEQRMQLDHLSNQ | not soluble
20 | MVFEGHLVGTGLKVGVVVGRFNEFITSKLLGGALDGLKRHGVEENDIDVAWVPGAFEIPLIAKKMANSGKYDAVITLGTVIRGATTHYDYVCNEVAKGVASLSLQTDIPVIFGVLTTETIEQAIERAGTKAGNKGYESAVAAIEMAHLSKHWA | not soluble
